Results: patent US20260008856A1, “METHODS OF TREATING DISEASE USING ANTI-IL1RAP ANTIBODIES AND ANTIBODY DRUG CONJUGATES” (Bluefin Biomedicine, Inc., priority 2022, published 2026)

Legend:
IL-33 signaling = IL-33 signaling reporter cell assay (HEK-Blue IL-33 cells); assay type: cell-based; conditions: antibody 1-10 μg/ml, IL-33 0.5 ng/ml
Method: FIGS. 7A and 7B show blockage of IL-33 signaling by anti-IL1RAP antibodies. HEK-Blue IL-33 cells (Invivogen, CA) were harvested and plated in technical duplicates at a density of 50,000 cells per well in a 96-well plate. Antibodies, or a corresponding human IgG1 control antibody, was added to the wells in a serial dilution starting at 10 μg/ml (FIG. 7A), or a concentration of 1 and 10 μg/ml (FIG. 7B). After incubating cells with antibodies for 30 minutes, IL-33 was added to a final concentration of 0.5 ng/ml, and the plate was incubated overnight. 24 hours later, substrate was added to the supernatants, and samples were analyzed for absorbance at 620 nm. CBIgG1 (anti-hen egg lysozyme antibody, CrownBio™) was included as a negative control.
(§1) HEK-Blue IL-33 cells (Invivogen, CA) were harvested and plated in technical duplicates at a density of 50,000 cells per well in a 96-well plate. antibodies, or a corresponding human IgG1 control antibody was added to the wells in a concentration range of […]. After incubating cells with antibodies for 30 minutes, IL-33 was added to a final concentration of 0.5 ng/ml, and the plate was incubated overnight. To examine whether any of the antibodies were able to induce ST2 activation in the absence of IL-33, samples were incubated with 10 μg/mL antibody without addition of the ligand. The following day, substrate was added to the supernatants, and samples were analyzed for absorbance at 620 nm.

IL-1α signaling = test: IL-1 signaling reporter cell assay, IL-1α; assay type: cell-based; conditions: serial dilution of antibody
Method: as §1, with “IL-1β” for “IL-33”, “plate. IL1RAP” for “plate.”, “IL-1R” for “ST2”, “IL-1β,” for “IL-33,”
In addition, serial dilution of IL1RAP antibodies was performed to determine EC50 against IL-1β and IL-1α (FIGS. 6B and 6C). Many of these antibodies, including 37E10_15B5 and 44E5_15C5 can block IL-1β and IL-1α signaling with subnanomolar EC50.

[1] = test system: TARC expression in PBMCs stimulated with HDM and IL-4; test: TARC in PBMCs treated by HDM and hIL-4; assay type: cell-based, human
Method: 0.2 million PBMCs in 100 ul medium (RPMI1640, 10% heat-inactivated FBS) were added to each well of 96 well cell culture plate. BFB759 at multiple concentrations in 50 ul medium was added to the wells. The cells were incubated in the incubator for 45 min. Then, 50 ul HDM solution (final concentration 10 ug/ml) was added to the wells. After 7 days incubation, the supernatant was transferred to a new 96 well plate, and used in TARC ELISA right away, or frozen in −80 C freezer for ELISA later. For the combination studies of BFB759 with other drugs, the single agent or combination of drugs were added to the PBMCs, incubated for 45 min, then HDM solution, or HDM and IL-4 or IL-13 solution were added to the wells. The assay was incubated for 7 days, and the supernatant was harvested for TARC ELISA.
Dupilumab is approved for treatment of AD (Atopic Dermatitis). It inhibits IL-4/13 signaling by blocking their binding to IL-4Ra. […] (FIG. 15)
In the data shown in FIG. 15, HDM was used at 10 ug/ml, IL-4 was used at […], antibodies were at three different concentrations as shown in the graph. Data shown are mean±s.d.

recombinant human IL1RAP = target: T1, recombinant human IL1RAP (Homo sapiens, UniProt Q9NPH3); test: Binding competition binning on Octet; conditions: Protein A biosensors
T1 construct: MBP-IL1RAP(S21-T367)-; 8xHis (C); made in house; host or cells: CHO (ExpiCHO transient expression)
How it was run: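 Protein A biosensors loaded with first antibody (10 ug/mL, 5 min), blocked with irrelevant antibody (100 ug/mL, 5 min). Then exposed to recombinant human IL1RAP (1 min) and a second antibody (1 min). Octet interferometry signal increase indicates non-competing pairs; antibodies assigned to bins.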

EOL-1 = test: Flow cytometry binding to endogenous cell line EOL-1; assay type: cell-based, human; parameters: key to binding to EOL-1 by flow cytometry: (−): No binding; (+): Weak binding; (++): Moderate binding; (+++): Strong binding; conditions: primary antibody 1 ug/ml
How it was run: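 Live cells stained on ice for 30 minutes with primary antibody at 1 ug/ml in cold PBS/0.5% BSA, then washed and detected with Alexa Fluor 488 anti-human IgG (1:1000). Binding read by flow cytometry on endogenous IL1RAP-positive lines.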

B1: 37E10_15B5: human anti-IL1RAP antibody BFB759 (i.e., 37E10_15B5), VH SEQ ID NO: 64, VL SEQ ID NO: 68 (antibody, V domains shown)
VH: QVQLVESGGGVVQPGRSLRLSCAASGFTFRSHGMHWVRQAPGKGLEWVAVIWYDGSSEYYADSVKGRFTISRDNSKNTLYLQMNSLRAEDTAVYYCARENVYGSGWFFDYWGQGTLVTVSS
VL: EIVMTQSPATLSVSPGERASLSCRASQSVGSNLAWYQQRPGQAPRLLIFGASTRATGIPARFSGSRSGTEFTLTISSLQSEDFALYYCQQYNNWPPWTFGQGTKLEIK
- inhibition of IL-33 signaling (IL-33 signaling): partially inhibit
- EC50 against IL-1α (IL-1α signaling): subnanomolar
- inhibition of TARC expression in the HDM and IL-4 model ([1]; 1 or 0.1 ug/ml of BFB759, alone or combined with dupilumab): minimal inhibition
- inhibition of TARC expression in the HDM and IL-4 model ([1]; HDM 10 ug/ml, IL-4 750 ug/ml, three antibody concentrations): partially inhibits
- competition for binding, bin (2) (recombinant human IL1RAP): competed with each other
- binding to EOL-1 by flow cytometry (EOL-1): (+++)
